{"source": "patent US11141492B2", "about": "“Anticancer combinations” (City of Hope, priority 2013, dated 2021)", "key": {"[1]": {"test_system": "KPC-luc tumors", "test": "Orthotopic KPC-luc pancreatic tumor model, intravital imaging (IVIS)", "type": "in vivo, C57BL/6 mice", "conditions": "PEGPH20 4.5 mg/kg (~90 ug/mouse) i.v. day 7; shIDO-ST 5×10^6 cfu/mouse i.v. day 8 (alone: days 8 and 12); n=3", "experimental": "To determine the effects of shIDO-ST and PEGPH20™, nine C57BL/6 mice were injected orthotopically (in the pancreas) with 5×10^5 KPC-luc cells. Three small groups (n=3) were created: shIDO-ST alone, PEGPH20™ alone, and shIDO-ST with PEGPH20™. The shIDO-ST alone group received shIDO-ST at a dose of 5×10^6 cfu/mouse through intravenous (i.v.) injection on days 8 and 12. PEGPH20™ alone group received PEGPH20™ at a dose of 4.5 mg/kg (˜90 ug/mouse) on day 7 through i.v. injection. The combination (PEGPH20™ with shIDO-ST) group received PEGPH20™ at 4.5 mg/kg on day 7 followed by treatment with shIDO-ST on day 8 at 5×10^6 cfu/mouse. Mice were imaged using an intravital imaging system (IVIS) at indicated time points after tumor cell implantation. […]\nTitration of combination treatment with shIDO-ST and PEGPH20™ was performed to reduce the toxicity observed in initial experiment (FIG. 2). […] Photons emitted from mice imaged in FIG. 2 were quantitated using Living Image® software.\nDue to the sensitivity of 7 day KPC-luc tumors to the combination PEGPH20™ and […] treatment (FIG. 2), treatment of implanted KPC-luc tumors was delayed to day 14. […] Doses (previously determined from titration studies described in FIG. 2) consisted of 45 ug of PEGPH20™ followed by 5×10^6 cfu/mouse of shIDO-ST or shScr-ST. […] Photons emitted from mice imaged in FIG. 4 were quantitated using Living Image® software. […]"}, "[2]": {"test_system": "vessels within the tumor mass", "test": "Anti-CD31 staining of vessels within the tumor mass", "type": "in vivo, mice", "conditions": "14 day tumors, versus untreated (majority of closed vessels)", "excerpt": "Sections from 14 day tumors of mice untreated or treated with PEGPH20 were stained with anti-CD31 antibody to locate cross sections of vessels within the tumor mass. FITC-conjugated secondary specific to CD31 primary and DAPI staining were visualized by fluorescence microscopy."}, "[3]": {"test_system": "hyaluronan", "test": "Hyaluronan staining of KPC-luc tumor sections", "type": "in vivo, mice", "conditions": "forty-eight hours after treatment; 14 day orthotopic tumors"}}, "data": [{"molecule": "PEGPH20™: pegylated recombinant human hyaluronidase PH-20 (Halozyme, Inc.) (protein, listed as Homo Sapiens, PEGylated) MGVLKFKHIFFRSFVKSSGVSQIVFTFLLIPCCLTLNFRAPPVIPNVPFLWAWNAPSEFCLGKFDEPLDMSLFSFIGSPRINATGQGVTIFYVDRLGYYPYIDSITGVTVNGGIPQKISLQDHLDKAKKDITFYMPVDNLGMAVIDWEEWRPTWARNWKPKDVYKNRSIELVQQQNVQLSLTEATEKAKQEFEKAGKDFLVETIKLGKLLRPNHLWGYYLFPDCYNHHYKKPGYNGSCFNVEIKRNDDLSWLWNESTALYPSIYLNTQQSPVAATLYVRNRVREAIRVSKIPDAKSPLPVFAYTRIVFTDQVLKFLSQDELVYTFGETVALGASGIVIWGTLSIMRSMKSCLLLDNYMETILNPYIINVTLAAKMCSQVLCQEQGVCIRKNWNSSDYLHLNPDNFAIQLEKGGKFTVRGKPTLEDLEQFSEKFYCSCYSTLSCKEKADVKDTDAVDVCIADGVCIDAFLKPPMETEEPQIFYNASPSTLSATMFIVSILFLIISSVASL", "values": [{"measurement": "tumor growth by IVIS imaging", "setting": "[1]", "value": "euthanized due to significantly large tumors"}, {"measurement": "open vessels in tumors (CD31 staining)", "setting": "[2]", "value": "Many more open vessels"}, {"measurement": "hyaluronan in KPC-luc tumor tissue sections", "setting": "[3]", "value": "significant depletion of hyaluronan"}]}]}
